Measured values taken from patent publication US20140274782A1, “AFFINITY REAGENTS AND METHODS FOR DETECTION, PURIFICATION, AND PROTEOMIC ANALYSIS OF METHYLATED PROTEINS” (The Board of Trustees of the Leland Stanford Junior …, priority 2013, published 2014).

T1: G9a and GLP (Homo sapiens, UniProt Q96KQ7+Q9H9B1)
T1 sequence (Q96KQ7 2-1210 limits assumed): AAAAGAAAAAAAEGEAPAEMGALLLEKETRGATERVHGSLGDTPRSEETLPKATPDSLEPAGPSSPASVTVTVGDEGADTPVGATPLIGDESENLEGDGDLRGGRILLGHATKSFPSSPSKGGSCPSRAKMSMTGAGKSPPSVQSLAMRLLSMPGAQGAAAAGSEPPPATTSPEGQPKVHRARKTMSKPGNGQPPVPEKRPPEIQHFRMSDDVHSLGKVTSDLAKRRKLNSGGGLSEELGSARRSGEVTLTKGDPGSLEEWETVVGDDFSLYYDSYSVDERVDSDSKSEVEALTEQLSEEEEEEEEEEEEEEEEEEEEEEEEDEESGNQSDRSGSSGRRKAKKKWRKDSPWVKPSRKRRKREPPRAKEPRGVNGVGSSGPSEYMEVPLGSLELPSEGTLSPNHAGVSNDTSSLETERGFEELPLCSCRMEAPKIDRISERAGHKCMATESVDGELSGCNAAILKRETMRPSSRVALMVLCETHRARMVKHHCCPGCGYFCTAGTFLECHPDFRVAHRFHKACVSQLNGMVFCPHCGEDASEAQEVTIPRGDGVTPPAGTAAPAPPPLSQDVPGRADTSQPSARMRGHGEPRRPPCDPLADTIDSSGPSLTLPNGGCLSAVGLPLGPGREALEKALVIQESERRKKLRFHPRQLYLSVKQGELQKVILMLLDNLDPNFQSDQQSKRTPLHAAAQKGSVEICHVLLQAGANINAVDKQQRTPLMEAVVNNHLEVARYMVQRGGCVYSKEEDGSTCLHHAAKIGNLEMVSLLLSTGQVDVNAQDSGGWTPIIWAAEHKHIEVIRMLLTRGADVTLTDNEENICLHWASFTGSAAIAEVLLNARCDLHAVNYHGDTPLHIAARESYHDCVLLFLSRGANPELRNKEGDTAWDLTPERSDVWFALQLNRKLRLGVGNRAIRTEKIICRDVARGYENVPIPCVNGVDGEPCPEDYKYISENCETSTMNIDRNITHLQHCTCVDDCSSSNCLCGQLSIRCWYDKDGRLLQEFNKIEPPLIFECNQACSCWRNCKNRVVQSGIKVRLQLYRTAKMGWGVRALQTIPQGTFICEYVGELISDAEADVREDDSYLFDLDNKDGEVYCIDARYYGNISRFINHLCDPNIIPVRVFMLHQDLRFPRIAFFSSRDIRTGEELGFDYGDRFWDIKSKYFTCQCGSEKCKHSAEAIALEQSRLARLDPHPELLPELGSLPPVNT
T1 sequence (Q9H9B1 2-1298 limits assumed): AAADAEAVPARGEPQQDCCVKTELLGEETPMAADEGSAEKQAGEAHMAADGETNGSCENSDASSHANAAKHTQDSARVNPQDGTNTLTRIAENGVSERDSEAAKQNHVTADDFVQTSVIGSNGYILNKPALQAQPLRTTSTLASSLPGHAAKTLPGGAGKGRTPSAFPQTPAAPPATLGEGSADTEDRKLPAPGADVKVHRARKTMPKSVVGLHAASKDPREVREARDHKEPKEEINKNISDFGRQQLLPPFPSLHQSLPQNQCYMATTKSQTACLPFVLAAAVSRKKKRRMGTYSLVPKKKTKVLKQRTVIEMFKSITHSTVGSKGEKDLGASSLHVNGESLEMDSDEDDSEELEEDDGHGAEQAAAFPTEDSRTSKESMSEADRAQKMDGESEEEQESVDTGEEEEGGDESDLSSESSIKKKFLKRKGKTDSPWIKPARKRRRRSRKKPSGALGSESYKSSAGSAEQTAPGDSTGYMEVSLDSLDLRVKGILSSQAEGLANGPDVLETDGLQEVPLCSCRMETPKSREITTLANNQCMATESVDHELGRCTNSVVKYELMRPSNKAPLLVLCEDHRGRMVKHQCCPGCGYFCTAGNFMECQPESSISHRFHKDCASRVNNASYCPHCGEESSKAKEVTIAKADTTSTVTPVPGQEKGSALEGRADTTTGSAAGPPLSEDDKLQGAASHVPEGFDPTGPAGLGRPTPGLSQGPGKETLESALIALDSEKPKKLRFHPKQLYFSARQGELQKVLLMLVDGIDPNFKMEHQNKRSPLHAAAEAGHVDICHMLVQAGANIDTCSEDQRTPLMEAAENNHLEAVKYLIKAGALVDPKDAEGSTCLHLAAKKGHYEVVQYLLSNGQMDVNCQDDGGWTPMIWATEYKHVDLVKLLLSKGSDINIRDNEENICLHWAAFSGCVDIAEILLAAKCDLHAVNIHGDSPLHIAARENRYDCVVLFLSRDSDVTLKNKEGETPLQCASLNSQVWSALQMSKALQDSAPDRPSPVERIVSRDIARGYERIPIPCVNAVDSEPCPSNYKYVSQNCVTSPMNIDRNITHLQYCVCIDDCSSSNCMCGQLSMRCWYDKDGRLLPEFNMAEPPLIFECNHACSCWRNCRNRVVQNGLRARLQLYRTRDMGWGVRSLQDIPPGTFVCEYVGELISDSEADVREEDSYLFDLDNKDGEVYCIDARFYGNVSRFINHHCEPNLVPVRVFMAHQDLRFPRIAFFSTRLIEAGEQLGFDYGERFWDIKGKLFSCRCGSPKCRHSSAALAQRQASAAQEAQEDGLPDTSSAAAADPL

B1: CHERP (protein, UniProt Q8IWX8 1-916, looked up)
Calcium homeostasis …: MEMPLPPDDQELRNVIDKLAQFVARNGPEFEKMTMEKQKDNPKFSFLFGGEFYSYYKCKLALEQQQLICKQQTPELEPAATMPPLPQPPLAPAAPIPPAQGAPSMDELIQQSQWNLQQQEQHLLALRQEQVTAAVAHAVEQQMQKLLEETQLDMNEFDNLLQPIIDTCTKDAISAGKNWMFSNAKSPPHCELMAGHLRNRITADGAHFELRLHLIYLINDVLHHCQRKQARELLAALQKVVVPIYCTSFLAVEEDKQQKIARLLQLWEKNGYFDDSIIQQLQSPALGLGQYQATLINEYSSVVQPVQLAFQQQIQTLKTQHEEFVTSLAQQQQQQQQQQQQLQMPQMEAEVKATPPPPAPPPAPAPAPAIPPTTQPDDSKPPIQMPGSSEYEAPGGVQDPAAAGPRGPGPHDQIPPNKPPWFDQPHPVAPWGQQQPPEQPPYPHHQGGPPHCPPWNNSHEGMWGEQRGDPGWNGQRDAPWNNQPDAAWNSQFEGPWNSQHEQPPWGGGQREPPFRMQRPPHFRGPFPPHQQHPQFNQPPHPHNFNRFPPRFMQDDFPPRHPFERPPYPHRFDYPQGDFPAEMGPPHHHPGHRMPHPGINEHPPWAGPQHPDFGPPPHGFNGQPPHMRRQGPPHINHDDPSLVPNVPYFDLPAGLMAPLVKLEDHEYKPLDPKDIRLPPPMPPSERLLAAVEAFYSPPSHDRPRNSEGWEQNGLYEFFRAKMRARRRKGQEKRNSGPSRSRSRSKSRGRSSSRSNSRSSKSSGSYSRSRSRSCSRSYSRSRSRSRSRSRSSRSRSRSQSRSRSKSYSPGRRRRSRSRSPTPPSSAGLGSNSAPPIPDSRLGEENKGHQMLVKMGWSGSGGLGAKEQGIQDPIKGGDVRDKWDQYKGVGVALDDPYENYRRNKSYSFIARMKARDECK
B2: RFC1 (protein, UniProt P35251 1-1148, looked up)
Replication factor C subunit 1: MDIRKFFGVIPSGKKLVSETVKKNEKTKSDEETLKAKKGIKEIKVNSSRKEDDFKQKQPSKKKRIIYDSDSESEETLQVKNAKKPPEKLPVSSKPGKISRQDPVTYISETDEEDDFMCKKAASKSKENGRSTNSHLGTSNMKKNEENTKTKNKPLSPIKLTPTSVLDYFGTGSVQRSNKKMVASKRKELSQNTDESGLNDEAIAKQLQLDEDAELERQLHEDEEFARTLAMLDEEPKTKKARKDTEAGETFSSVQANLSKAEKHKYPHKVKTAQVSDERKSYSPRKQSKYESSKESQQHSKSSADKIGEVSSPKASSKLAIMKRKEESSYKEIEPVASKRKENAIKLKGETKTPKKTKSSPAKKESVSPEDSEKKRTNYQAYRSYLNREGPKALGSKEIPKGAENCLEGLIFVITGVLESIERDEAKSLIERYGGKVTGNVSKKTNYLVMGRDSGQSKSDKAAALGTKIIDEDGLLNLIRTMPGKKSKYEIAVETEMKKESKLERTPQKNVQGKRKISPSKKESESKKSRPTSKRDSLAKTIKKETDVFWKSLDFKEQVAEETSGDSKARNLADDSSENKVENLLWVDKYKPTSLKTIIGQQGDQSCANKLLRWLRNWQKSSSEDKKHAAKFGKFSGKDDGSSFKAALLSGPPGVGKTTTASLVCQELGYSYVELNASDTRSKSSLKAIVAESLNNTSIKGFYSNGAASSVSTKHALIMDEVDGMAGNEDRGGIQELIGLIKHTKIPIICMCNDRNHPKIRSLVHYCFDLRFQRPRVEQIKGAMMSIAFKEGLKIPPPAMNEIILGANQDIRQVLHNLSMWCARSKALTYDQAKADSHRAKKDIKMGPFDVARKVFAAGEETAHMSLVDKSDLFFHDYSIAPLFVQENYIHVKPVAAGGDMKKHLMLLSRAADSICDGDLVDSQIRSKQNWSLLPAQAIYASVLPGELMRGYMTQFPTFPSWLGKHSSTGKHDRIVQDLALHMSLRTYSSKRTVNMDYLSLLRDALVQPLTSQGVDGVQDVVALMDTYYLMKEDFENIMEISSWGGKPSPFSKLDPKVKAAFTRAYNKEAHLTPYSLQAIKASRHSTSPSLDSEYNEELNEDDSQSDEKDQDAIETDAMIKKKTKSSKPSKPEKDKEPRKGKGKSSKK
B3: ATXN2L (protein, UniProt Q8WWM7 1-1075, looked up)
Ataxin-2-like protein: MLKPQPLQQPSQPQQPPPTQQAVARRPPGGTSPPNGGLPGPLATSAAPPGPPAAASPCLGPVAAAGSGLRRGAEGILAPQPPPPQQHQERPGAAAIGSARGQSTGKGPPQSPVFEGVYNNSRMLHFLTAVVGSTCDVKVKNGTTYEGIFKTLSSKFELAVDAVHRKASEPAGGPRREDIVDTMVFKPSDVMLVHFRNVDFNYATKDKFTDSAIAMNSKVNGEHKEKVLQRWEGGDSNSDDYDLESDMSNGWDPNEMFKFNEENYGVKTTYDSSLSSYTVPLEKDNSEEFRQRELRAAQLAREIESSPQYRLRIAMENDDGRTEEEKHSAVQRQGSGRESPSLASREGKYIPLPQRVREGPRGGVRCSSSRGGRPGLSSLPPRGPHHLDNSSPGPGSEARGINGGPSRMSPKAQRPLRGAKTLSSPSNRPSGETSVPPPPAVGRMYPPRSPKSAAPAPISASCPEPPIGSAVPTSSASIPVTSSVSDPGVGSISPASPKISLAPTDVKELSTKEPGRTLEPQELARIAGKVPGLQNEQKRFQLEELRKFGAQFKLQPSSSPENSLDPFPPRILKEEPKGKEKEVDGLLTSEPMGSPVSSKTESVSDKEDKPPLAPSGGTEGPEQPPPPCPSQTGSPPVGLIKGEDKDEGPVAEQVKKSTLNPNAKEFNPTKPLLSVNKSTSTPTSPGPRTHSTPSIPVLTAGQSGLYSPQYISYIPQIHMGPAVQAPQMYPYPVSNSVPGQQGKYRGAKGSLPPQRSDQHQPASAPPMMQAAAAAGPPLVAATPYSSYIPYNPQQFPGQPAMMQPMAHYPSQPVFAPMLQSNPRMLTSGSHPQAIVSSSTPQYPSAEQPTPQALYATVHQSYPHHATQLHAHQPQPATTPTGSQPQSQHAAPSPVQHQAGQAPHLGSGQPQQNLYHPGALTGTPPSLPPGPSAQSPQSSFPQPAAVYAIHHQQLPHGFTNMAHVTQAHVQTGITAAPPPHPGAPHPPQVMLLHPPQSHGGPPQGAVPQSGVPALSASTPSPYPYIGHPQGEQPGQAPGFPGGADDRIREFSLAGGIWHGRAEGLQVGQDARVLGGE

Each molecule was assayed against T1, G9a and GLP (assay: Triple SILAC pull-down after UNC0638 treatment of 293T cells, DMSO/UNC0638 ratio of protein captured by 3×MBT). Settings: SILAC ratio DMSO/UNC0638 of protein pulled down with 3xMBT; UNC0638 in heavy SILAC media.
Assay type: cell-based
Set-up: cells were treated for 24 hours with UNC0638 at 2.5 μM or DMSO vehicle control; endogenous in cells; host or cells: HEK 293T
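For Relative to UNC0638 Average in this document: mass spectrometry (Q-Exactive) SILAC quantitation, DMSO/UNC0638 ratio computed after subtracting 3×MBTD355N mutant pull-down background, only proteins with at least twofold 3×MBT over mutant signal considered.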
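For Relative to UNC0638 UNC Heavy in this document: mass spectrometry (Q-Exactive) SILAC quantitation, DMSO/UNC0638 ratio computed after subtracting 3×MBTD355N mutant pull-down background, only proteins with at least twofold 3×MBT over mutant signal considered.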
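For Relative to UNC0638 UNC Light in this document: mass spectrometry (Q-Exactive) SILAC quantitation, DMSO/UNC0638 ratio computed after subtracting 3×MBTD355N mutant pull-down background, only proteins with at least twofold 3×MBT over mutant signal considered.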

Row | Molecule | Relative to UNC0638 UNC Heavy [log base 2]
1 | B1 | 0.38
2 | B2 | 0.61
3 | B3 | 0.31

Same assay, conditions: SILAC ratio DMSO/UNC0638 of protein pulled down with 3xMBT; UNC0638 in light SILAC media

Row | Molecule | Relative to UNC0638 UNC Light [log base 2]
4 | B1 | 0.05
5 | B2 | −0.18
6 | B3 | 0.12

Same assay, conditions: average of UNC Light and UNC Heavy experiments

Row | Molecule | Relative to UNC0638 Average [log base 2]
7 | B1 | 0.22
8 | B2 | 0.21
9 | B3 | 0.21

What follows are molecules tested on 3×MBT domain of L3MBTL1 (assay: Triple SILAC pull-down, 3xMBT/3xMBTD355N ratio (cytoplasmic, nuclear and chromatin fractions of 293T cells)). Settings: SILAC ratio, pull-down 3xMBT vs 3xMBTD355N; experiment with UNC0638 in heavy SILAC media.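 Also: proteins quantified with MaxQuant, requiring at least two unique peptides and quantification in both label directions, normalized to the mean of proteins from a digested loading control.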
Assay type: binding, human

Row | Molecule | 3xMBT/D355N UNC Heavy [log base 2]
10 | B1 | 1.58
11 | B2 | 1.29
12 | B3 | 2.64

Same assay, conditions: SILAC ratio, pull-down 3xMBT vs 3xMBTD355N; experiment with UNC0638 in light SILAC media

Row | Molecule | 3xMBT/D355N UNC Light [log base 2]
13 | B1 | 2.26
14 | B2 | −1.32
15 | B3 | 2.66
